Reference: article doi:10.1101/2023.01.06.522972 (2023)

Biological target: Leishmania major actin (Leishmania major, UniProt P45520 2-376)
Experiment: ITC; ATP-actin

Leishmania major actin, sequence (P45520 2-376): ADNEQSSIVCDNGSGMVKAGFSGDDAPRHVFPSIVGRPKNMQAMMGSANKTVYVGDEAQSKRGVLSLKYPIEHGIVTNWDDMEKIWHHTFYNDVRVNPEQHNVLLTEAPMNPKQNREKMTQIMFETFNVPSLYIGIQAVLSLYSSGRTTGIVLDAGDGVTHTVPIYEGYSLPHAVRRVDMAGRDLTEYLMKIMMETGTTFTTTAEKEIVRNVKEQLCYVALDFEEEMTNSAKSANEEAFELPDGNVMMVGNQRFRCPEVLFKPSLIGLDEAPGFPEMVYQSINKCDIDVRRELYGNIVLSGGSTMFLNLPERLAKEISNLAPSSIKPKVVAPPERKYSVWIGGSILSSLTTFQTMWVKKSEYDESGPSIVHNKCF

B1: Leishmania major profilin, wild type (natural protein)
chain: SWQAYVDDSLIGSGNMHSAAIIGAADGSYWAYGGSYVPQPEEVQHIQKCLSDFSFVQSSGVNIYGVKFFGLQCGTDGDCKYIFFKKGAAGGCIYTTKQAFIVAVYGNPGDTSSLQQDLEKNTAHAVTVNPADCNTTVKRIADYLIKLGY
Kd: 71.8 nM
